Target: T1, CD3 epsilon homodimer protein (UniProt P07766 23-126)
T1 construct: also called CD3 (CD3 epsilon)
Assay: SPR, CD3 epsilon homodimer on chip, one-arm antibody as analyte;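 note: surface plasmon resonance at 25 °C with CD3 epsilon homodimer amine-coupled to a CM4 sensor chip, antibody injected as analyte, HBS-EP+ as running buffer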

T1 sequence (P07766 23-126): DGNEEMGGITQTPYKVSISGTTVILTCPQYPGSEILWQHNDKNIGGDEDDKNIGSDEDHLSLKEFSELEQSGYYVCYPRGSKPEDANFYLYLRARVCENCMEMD

Row | Binder | KD ratio (KD of CE115HA000/KD of altered form)
1 | CE115HA000 A99T (antibody, human IgG1, kappa, L234A L235A, N297A, name in Kabat numbering, one-arm antibody) heavy: QVQLVESGGGVVQPGRSLRLSCAASGFTFSNAWMHWVRQAPGKGLEWVAQIKAKSNNYATYYAESVKGRFTISRDDSKNSLYLQMNSLKTEDTAVYYCRYVHYGTYYGVDAWGQGTTVTVSSASTKGPSVFPLAPSSKSTSGGTAALGCLVKDYFPEPVTVSWNSGALTSGVHTFPAVLQSSGLYSLSSVVTVPSSSLGTQTYICNVNHKPSNTKVDKKVEPKSCDKTHTCPPCPAPEAAGGPSVFLFPPKPKDTLMISRTPEVTCVVVDVSHEDPEVKFNWYVDGVEVHNAKTKPREEQYASTYRVVSVLTVLHQDWLNGKEYKCKVSNKALPAPIEKTISKAKGQPREPQVYTLPPSRCELTKNQVSLSCAVKGFYPSDIAVEWESNGQPENNYKTTPPVLDSDGSFFLVSKLTVDKSRWQQGNVFSCSVMHEALHNHYTQKSLSLSPDYKDDDDK EPKSSDKTHTCPPCPAPELLGGPSVFLFPPKPKDTLMISRTPEVTCVVVDVSHEDPEVKFNWYVDGVEVHNAKTKPREEQYNSTYRVVSVLTVLHQDWLNGKEYKCKVSNKALPAPIEKTISKAKGQPREPQVCTLPPSRDELTKNQVSLWCLVKGFYPSDIAVEWESNGQPENNYKTTPPVLDSDGSFFLYSKLTVDKSRWQQGNVFSCSVMHEALHNRYTQKSLSLSP light: DIVMTQSPLSLPVTPGEPASISCRSSQSLVHSNRNTYLHWYQQKPGQAPRLLIYKVSNRFSGVPDRFSGSGSGTDFTLKISRVEAEDVGVYYCGQGTQVPYTFGQGTKLEIKRTVAAPSVFIFPPSDEQLKSGTASVVCLLNNFYPREAKVQWKVDNALQSGNSQESVTEQDSKDSTYSLSSTLTLSKADYEKHKVYACEVTHQGLSSPVTKSFNRGEC | 0.93
2 | CE115HA000 A102V (antibody, human IgG1, kappa, L234A L235A, N297A, name in Kabat numbering, one-arm antibody) heavy: QVQLVESGGGVVQPGRSLRLSCAASGFTFSNAWMHWVRQAPGKGLEWVAQIKAKSNNYATYYAESVKGRFTISRDDSKNSLYLQMNSLKTEDTAVYYCRYVHYGAYYGVDVWGQGTTVTVSSASTKGPSVFPLAPSSKSTSGGTAALGCLVKDYFPEPVTVSWNSGALTSGVHTFPAVLQSSGLYSLSSVVTVPSSSLGTQTYICNVNHKPSNTKVDKKVEPKSCDKTHTCPPCPAPEAAGGPSVFLFPPKPKDTLMISRTPEVTCVVVDVSHEDPEVKFNWYVDGVEVHNAKTKPREEQYASTYRVVSVLTVLHQDWLNGKEYKCKVSNKALPAPIEKTISKAKGQPREPQVYTLPPSRCELTKNQVSLSCAVKGFYPSDIAVEWESNGQPENNYKTTPPVLDSDGSFFLVSKLTVDKSRWQQGNVFSCSVMHEALHNHYTQKSLSLSPDYKDDDDK EPKSSDKTHTCPPCPAPELLGGPSVFLFPPKPKDTLMISRTPEVTCVVVDVSHEDPEVKFNWYVDGVEVHNAKTKPREEQYNSTYRVVSVLTVLHQDWLNGKEYKCKVSNKALPAPIEKTISKAKGQPREPQVCTLPPSRDELTKNQVSLWCLVKGFYPSDIAVEWESNGQPENNYKTTPPVLDSDGSFFLYSKLTVDKSRWQQGNVFSCSVMHEALHNRYTQKSLSLSP light: DIVMTQSPLSLPVTPGEPASISCRSSQSLVHSNRNTYLHWYQQKPGQAPRLLIYKVSNRFSGVPDRFSGSGSGTDFTLKISRVEAEDVGVYYCGQGTQVPYTFGQGTKLEIKRTVAAPSVFIFPPSDEQLKSGTASVVCLLNNFYPREAKVQWKVDNALQSGNSQESVTEQDSKDSTYSLSSTLTLSKADYEKHKVYACEVTHQGLSSPVTKSFNRGEC | 1.27
3 | CE115HA000 A102P (antibody, human IgG1, kappa, L234A L235A, N297A, name in Kabat numbering, one-arm antibody) heavy: QVQLVESGGGVVQPGRSLRLSCAASGFTFSNAWMHWVRQAPGKGLEWVAQIKAKSNNYATYYAESVKGRFTISRDDSKNSLYLQMNSLKTEDTAVYYCRYVHYGAYYGVDPWGQGTTVTVSSASTKGPSVFPLAPSSKSTSGGTAALGCLVKDYFPEPVTVSWNSGALTSGVHTFPAVLQSSGLYSLSSVVTVPSSSLGTQTYICNVNHKPSNTKVDKKVEPKSCDKTHTCPPCPAPEAAGGPSVFLFPPKPKDTLMISRTPEVTCVVVDVSHEDPEVKFNWYVDGVEVHNAKTKPREEQYASTYRVVSVLTVLHQDWLNGKEYKCKVSNKALPAPIEKTISKAKGQPREPQVYTLPPSRCELTKNQVSLSCAVKGFYPSDIAVEWESNGQPENNYKTTPPVLDSDGSFFLVSKLTVDKSRWQQGNVFSCSVMHEALHNHYTQKSLSLSPDYKDDDDK EPKSSDKTHTCPPCPAPELLGGPSVFLFPPKPKDTLMISRTPEVTCVVVDVSHEDPEVKFNWYVDGVEVHNAKTKPREEQYNSTYRVVSVLTVLHQDWLNGKEYKCKVSNKALPAPIEKTISKAKGQPREPQVCTLPPSRDELTKNQVSLWCLVKGFYPSDIAVEWESNGQPENNYKTTPPVLDSDGSFFLYSKLTVDKSRWQQGNVFSCSVMHEALHNRYTQKSLSLSP light: DIVMTQSPLSLPVTPGEPASISCRSSQSLVHSNRNTYLHWYQQKPGQAPRLLIYKVSNRFSGVPDRFSGSGSGTDFTLKISRVEAEDVGVYYCGQGTQVPYTFGQGTKLEIKRTVAAPSVFIFPPSDEQLKSGTASVVCLLNNFYPREAKVQWKVDNALQSGNSQESVTEQDSKDSTYSLSSTLTLSKADYEKHKVYACEVTHQGLSSPVTKSFNRGEC | 3.51
4 | CE115HA000 A99Y (antibody, human IgG1, kappa, L234A L235A, N297A, name in Kabat numbering, one-arm antibody) heavy: QVQLVESGGGVVQPGRSLRLSCAASGFTFSNAWMHWVRQAPGKGLEWVAQIKAKSNNYATYYAESVKGRFTISRDDSKNSLYLQMNSLKTEDTAVYYCRYVHYGYYYGVDAWGQGTTVTVSSASTKGPSVFPLAPSSKSTSGGTAALGCLVKDYFPEPVTVSWNSGALTSGVHTFPAVLQSSGLYSLSSVVTVPSSSLGTQTYICNVNHKPSNTKVDKKVEPKSCDKTHTCPPCPAPEAAGGPSVFLFPPKPKDTLMISRTPEVTCVVVDVSHEDPEVKFNWYVDGVEVHNAKTKPREEQYASTYRVVSVLTVLHQDWLNGKEYKCKVSNKALPAPIEKTISKAKGQPREPQVYTLPPSRCELTKNQVSLSCAVKGFYPSDIAVEWESNGQPENNYKTTPPVLDSDGSFFLVSKLTVDKSRWQQGNVFSCSVMHEALHNHYTQKSLSLSPDYKDDDDK EPKSSDKTHTCPPCPAPELLGGPSVFLFPPKPKDTLMISRTPEVTCVVVDVSHEDPEVKFNWYVDGVEVHNAKTKPREEQYNSTYRVVSVLTVLHQDWLNGKEYKCKVSNKALPAPIEKTISKAKGQPREPQVCTLPPSRDELTKNQVSLWCLVKGFYPSDIAVEWESNGQPENNYKTTPPVLDSDGSFFLYSKLTVDKSRWQQGNVFSCSVMHEALHNRYTQKSLSLSP light: DIVMTQSPLSLPVTPGEPASISCRSSQSLVHSNRNTYLHWYQQKPGQAPRLLIYKVSNRFSGVPDRFSGSGSGTDFTLKISRVEAEDVGVYYCGQGTQVPYTFGQGTKLEIKRTVAAPSVFIFPPSDEQLKSGTASVVCLLNNFYPREAKVQWKVDNALQSGNSQESVTEQDSKDSTYSLSSTLTLSKADYEKHKVYACEVTHQGLSSPVTKSFNRGEC | 1.25
5 | CE115HA000 A102I (antibody, human IgG1, kappa, L234A L235A, N297A, name in Kabat numbering, one-arm antibody) heavy: QVQLVESGGGVVQPGRSLRLSCAASGFTFSNAWMHWVRQAPGKGLEWVAQIKAKSNNYATYYAESVKGRFTISRDDSKNSLYLQMNSLKTEDTAVYYCRYVHYGAYYGVDIWGQGTTVTVSSASTKGPSVFPLAPSSKSTSGGTAALGCLVKDYFPEPVTVSWNSGALTSGVHTFPAVLQSSGLYSLSSVVTVPSSSLGTQTYICNVNHKPSNTKVDKKVEPKSCDKTHTCPPCPAPEAAGGPSVFLFPPKPKDTLMISRTPEVTCVVVDVSHEDPEVKFNWYVDGVEVHNAKTKPREEQYASTYRVVSVLTVLHQDWLNGKEYKCKVSNKALPAPIEKTISKAKGQPREPQVYTLPPSRCELTKNQVSLSCAVKGFYPSDIAVEWESNGQPENNYKTTPPVLDSDGSFFLVSKLTVDKSRWQQGNVFSCSVMHEALHNHYTQKSLSLSPDYKDDDDK EPKSSDKTHTCPPCPAPELLGGPSVFLFPPKPKDTLMISRTPEVTCVVVDVSHEDPEVKFNWYVDGVEVHNAKTKPREEQYNSTYRVVSVLTVLHQDWLNGKEYKCKVSNKALPAPIEKTISKAKGQPREPQVCTLPPSRDELTKNQVSLWCLVKGFYPSDIAVEWESNGQPENNYKTTPPVLDSDGSFFLYSKLTVDKSRWQQGNVFSCSVMHEALHNRYTQKSLSLSP light: DIVMTQSPLSLPVTPGEPASISCRSSQSLVHSNRNTYLHWYQQKPGQAPRLLIYKVSNRFSGVPDRFSGSGSGTDFTLKISRVEAEDVGVYYCGQGTQVPYTFGQGTKLEIKRTVAAPSVFIFPPSDEQLKSGTASVVCLLNNFYPREAKVQWKVDNALQSGNSQESVTEQDSKDSTYSLSSTLTLSKADYEKHKVYACEVTHQGLSSPVTKSFNRGEC | 1.29
6 | CE115HA000 A102Y (antibody, human IgG1, kappa, L234A L235A, N297A, name in Kabat numbering, one-arm antibody) heavy: QVQLVESGGGVVQPGRSLRLSCAASGFTFSNAWMHWVRQAPGKGLEWVAQIKAKSNNYATYYAESVKGRFTISRDDSKNSLYLQMNSLKTEDTAVYYCRYVHYGAYYGVDYWGQGTTVTVSSASTKGPSVFPLAPSSKSTSGGTAALGCLVKDYFPEPVTVSWNSGALTSGVHTFPAVLQSSGLYSLSSVVTVPSSSLGTQTYICNVNHKPSNTKVDKKVEPKSCDKTHTCPPCPAPEAAGGPSVFLFPPKPKDTLMISRTPEVTCVVVDVSHEDPEVKFNWYVDGVEVHNAKTKPREEQYASTYRVVSVLTVLHQDWLNGKEYKCKVSNKALPAPIEKTISKAKGQPREPQVYTLPPSRCELTKNQVSLSCAVKGFYPSDIAVEWESNGQPENNYKTTPPVLDSDGSFFLVSKLTVDKSRWQQGNVFSCSVMHEALHNHYTQKSLSLSPDYKDDDDK EPKSSDKTHTCPPCPAPELLGGPSVFLFPPKPKDTLMISRTPEVTCVVVDVSHEDPEVKFNWYVDGVEVHNAKTKPREEQYNSTYRVVSVLTVLHQDWLNGKEYKCKVSNKALPAPIEKTISKAKGQPREPQVCTLPPSRDELTKNQVSLWCLVKGFYPSDIAVEWESNGQPENNYKTTPPVLDSDGSFFLYSKLTVDKSRWQQGNVFSCSVMHEALHNRYTQKSLSLSP light: DIVMTQSPLSLPVTPGEPASISCRSSQSLVHSNRNTYLHWYQQKPGQAPRLLIYKVSNRFSGVPDRFSGSGSGTDFTLKISRVEAEDVGVYYCGQGTQVPYTFGQGTKLEIKRTVAAPSVFIFPPSDEQLKSGTASVVCLLNNFYPREAKVQWKVDNALQSGNSQESVTEQDSKDSTYSLSSTLTLSKADYEKHKVYACEVTHQGLSSPVTKSFNRGEC | 1
